The data set in a line: self-splicing fitness, log relative to wild type (ln ratio); higher = more splicing; Tetrahymena group I intron in knt gene, E. coli kanamycin selection, DiMSum; sequences stand for … in CUCUCU…GGAGGGAAAAGUUAUCAGGCAUGCACCUGGUAGCUAGUCUUUAAACCAAUAGAUUGCAUCGGUUUAAAAGGCAAGACCGUCAAAUUGCGGGAAAGGGGUCAACAGCCGUUCAGUACCAAGUCUCAGGGGAAACUUUGAGAUGGCCUUGCAAAGGGUAUGGUAAUAAGCUGACGGACAUGGUCCUAACCACGCAGCCAAGUCCUAAGUCAACAGAUCUUCUGUUGAUAUGGAUGCAGUUCACAGACUAAAUGUCGGUCGGGGAAGAUGUAUUCUUCUCAUAAGAUAUAGUCGGACCUCUCCUUAAUGGGAGCUAGCGGAUGAAGUGAUGCAACACUGGAGCCGCUGGGAACUAAUUUGUAUGCGAAAGUAUAUUGAUUAGUUUUGGAGUACUCGUGGUCG
Put shortly: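 Library with all eight P1ex-region intron nucleotides randomised, intron inside the knt kanamycin-resistance gene on pET-22b(+), in E. coli BL21(DE3). Cells grew overnight at 37°C or 30°C on LB agar with or without 25 μg/mL kanamycin (plus 100 μg/mL carbenicillin, 50 μM IPTG, 0.2% rhamnose), in six replicate transformations. Pooled colonies were amplicon-sequenced on Illumina HiSeq 2500. DiMSum fitness is the error-weighted combination of wild-type-normalised replicate fold changes, kanamycin versus none.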

± gives the uncertainty stated by the source.

For UGUUAGCAAUAUUACGUCGG, the “self-splicing fitness (ln)” value reads like this: (30 °C) -0.97 ± 0.1; (37 °C) -0.8 ± 0.17. The corresponding values for UGCAAGCAAUAUUACGUAUU are -3.36 ± 0.37 and -2.08 ± 0.21. For the sequence UAGAAGCAAUAUUACGACGG, the “self-splicing fitness (ln)” value is, setting by setting: (30 °C) -0.626 ± 0.095; (37 °C) 0.0889 ± 0.14. The like results for UCCUAGCAAUAUUACGACAG were, in that order, -3.29 ± 0.25 and -2.42 ± 0.31. The corresponding values for UUUCAGCAAUAUUACGAGUC are -3.12 ± 0.29 and -1.97 ± 0.37.

As for CGCAAGCAAUAUUACGUGAU, the “self-splicing fitness (ln)” value was -4.09 ± 0.16 (30 °C) and -1.63 ± 0.11 (37 °C). On to AGUAAGCAAUAUUACGCACC, for which the “self-splicing fitness (ln)” value runs as follows: (30 °C) -0.949 ± 0.24; (37 °C) -0.969 ± 0.25. As for ACAAAGCAAUAUUACGCUGC, the “self-splicing fitness (ln)” value (30 °C) was -3.63 ± 0.25 and the “self-splicing fitness (ln)” value (37 °C) is -1.26 ± 0.21. The corresponding values for CGAGAGCAAUAUUACGGUCG are -1.42 ± 0.34 and -2.28 ± 0.24. For GAGUAGCAAUAUUACGUUAU, the “self-splicing fitness (ln)” value by setting is: (30 °C) -2.9 ± 0.23; (37 °C) -2.12 ± 0.21. The corresponding values for CCGUAGCAAUAUUACGAGUG are -1.07 ± 0.069 and -0.807 ± 0.083.

Regarding CGCCAGCAAUAUUACGUGCU, the “self-splicing fitness (ln)” value (30 °C) is -3.27 ± 0.2 and the “self-splicing fitness (ln)” value (37 °C) was -3.23 ± 0.33. The like results for CAUUAGCAAUAUUACGGCGU were, in that order, -2.25 ± 0.13 and -0.905 ± 0.13. GUCAAGCAAUAUUACGUCCC: the “self-splicing fitness (ln)” value (30 °C) is -1.22 ± 0.29 and the “self-splicing fitness (ln)” value (37 °C) was -0.2 ± 0.26. The corresponding values for AGCCAGCAAUAUUACGGUUU are -3.43 ± 0.2 and -2.04 ± 0.18. The like results for CUUGAGCAAUAUUACGGCCA were, in that order, -1.69 ± 0.23 and -2.78 ± 0.36. As for GCCCAGCAAUAUUACGAUUU, the “self-splicing fitness (ln)” value (30 °C) was -1.07 ± 0.076 and the “self-splicing fitness (ln)” value (37 °C) is -0.735 ± 0.1.

ACCAAGCAAUAUUACGUUGA: the “self-splicing fitness (ln)” value runs as follows: (30 °C) -2.83 ± 0.12; (37 °C) -2.01 ± 0.11.

In the case of CCCGAGCAAUAUUACGACGG, the “self-splicing fitness (ln)” value by setting is: (30 °C) -3.44 ± 0.17; (37 °C) -3.49 ± 0.27. The corresponding values for AGUGAGCAAUAUUACGUGUA are -3.6 ± 0.28 and -2.84 ± 0.23. The corresponding values for UUCUAGCAAUAUUACGGACU are -1.6 ± 0.17 and -1.16 ± 0.19. The like results for CGAUAGCAAUAUUACGAAAA were, in that order, -3.85 ± 0.48 and -2.7 ± 0.3.

For the sequence AGUGAGCAAUAUUACGCGCC, the “self-splicing fitness (ln)” value (30 °C) is -2.21 ± 0.23. With GGGAAGCAAUAUUACGGGAA, the “self-splicing fitness (ln)” value runs as follows: (30 °C) -1.55 ± 0.45; (37 °C) -1.14 ± 0.31.

Turning to AGUCAGCAAUAUUACGACUA, the “self-splicing fitness (ln)” value (30 °C) is -0.831 ± 0.16 and the “self-splicing fitness (ln)” value (37 °C) amounted to 0.0945 ± 0.14. On to GGCUAGCAAUAUUACGUUGA, for which the “self-splicing fitness (ln)” value runs as follows: (30 °C) -1.26 ± 0.13; (37 °C) 0.455 ± 0.14. The corresponding values for GAGGAGCAAUAUUACGGUGU are -3.56 ± 0.27 and -1.59 ± 0.21. On to UUCAAGCAAUAUUACGUACC, for which the “self-splicing fitness (ln)” value (37 °C) was -1.69 ± 0.2.

For UCAGAGCAAUAUUACGUUCC, the “self-splicing fitness (ln)” value is -3.84 ± 0.47 (30 °C) and -2.57 ± 0.49 (37 °C). On to AUUUAGCAAUAUUACGGCUU, for which the “self-splicing fitness (ln)” value by setting is: (30 °C) -0.173 ± 0.12; (37 °C) 0.0373 ± 0.15. With GGAUAGCAAUAUUACGCCUC, the “self-splicing fitness (ln)” value (30 °C) was -2.02 ± 0.32. As to GUUCAGCAAUAUUACGGAAC, the “self-splicing fitness (ln)” value reads like this: (30 °C) -3.19 ± 0.2; (37 °C) -2.09 ± 0.38. The like results for GCUGAGCAAUAUUACGGGGA were, in that order, -2.81 ± 0.3 and -2.03 ± 0.32. Regarding UGAGAGCAAUAUUACGAAUA, where the note is “30 °C”, the “self-splicing fitness (ln)” value was -2.76 ± 0.49.

In the case of GUAGAGCAAUAUUACGCAAC, the “self-splicing fitness (ln)” value reads like this: (30 °C) -1.79 ± 0.24; (37 °C) -0.94 ± 0.39. The like results for UGUGAGCAAUAUUACGCAAU were, in that order, -4.42 ± 0.42 and -2.73 ± 0.31. The corresponding values for GGUCAGCAAUAUUACGUGAU are -3.88 ± 0.22 and -2.14 ± 0.11. The like results for AGGGAGCAAUAUUACGCUGC were, in that order, -3.96 ± 0.29 and -2.35 ± 0.23. Consider GCCAAGCAAUAUUACGCAUG, for which the “self-splicing fitness (ln)” value reads like this: (30 °C) -4.41 ± 0.46; (37 °C) -2.22 ± 0.3. The like results for AACAAGCAAUAUUACGGGGU were, in that order, -3.36 ± 0.11 and -2.28 ± 0.13. As to UUCAAGCAAUAUUACGGGCC, under “37 °C”, the “self-splicing fitness (ln)” value was -2.94 ± 0.48. Turning to AAGCAGCAAUAUUACGGGAU, the “self-splicing fitness (ln)” value by setting is: (30 °C) -3.63 ± 0.14; (37 °C) -1.92 ± 0.1. Consider AUCUAGCAAUAUUACGUUUC, for which the “self-splicing fitness (ln)” value is -2.64 ± 0.35 (30 °C) and -2.9 ± 0.47 (37 °C). The corresponding values for GGUAAGCAAUAUUACGUUUA are -2.68 ± 0.17 and -0.278 ± 0.11. Take CGUGAGCAAUAUUACGCCGU: for the setting “37 °C”, the “self-splicing fitness (ln)” value was -1.1 ± 0.25. For CUCCAGCAAUAUUACGAUAA, the “self-splicing fitness (ln)” value is -3.22 ± 0.16 (30 °C) and -2.41 ± 0.18 (37 °C). As for CAACAGCAAUAUUACGGAAU, the “self-splicing fitness (ln)” value (30 °C) is -2.96 ± 0.14 and the “self-splicing fitness (ln)” value (37 °C) is -3.05 ± 0.2.

As for UGGGAGCAAUAUUACGAUUG, for the setting “37 °C”, the “self-splicing fitness (ln)” value was -2.29 ± 0.4. In the case of AGUAAGCAAUAUUACGAGUA, the “self-splicing fitness (ln)” value by setting is: (30 °C) -2.91 ± 0.26; (37 °C) -0.922 ± 0.16. The corresponding values for GCCAAGCAAUAUUACGCCUU are -2.83 ± 0.13 and -1.26 ± 0.12. The like results for AUACAGCAAUAUUACGUAUC were, in that order, -4.19 ± 0.21 and -2.6 ± 0.17. Regarding CGGAAGCAAUAUUACGCAAA, the “self-splicing fitness (ln)” value (37 °C) is -2.55 ± 0.33. For the sequence UAGGAGCAAUAUUACGGCAU, the “self-splicing fitness (ln)” value (30 °C) was -4.07 ± 0.39 and the “self-splicing fitness (ln)” value (37 °C) was -1.5 ± 0.25. The corresponding values for UUCAAGCAAUAUUACGUAGC are -4.06 ± 0.26 and -2.3 ± 0.25.

On to CCCAAGCAAUAUUACGACCG, for which the “self-splicing fitness (ln)” value was -3.32 ± 0.24 (30 °C) and -3.03 ± 0.47 (37 °C). The like results for CAGCAGCAAUAUUACGCUCG were, in that order, -1.95 ± 0.16 and -0.385 ± 0.21.

On to CCAAAGCAAUAUUACGAUUG, for which the “self-splicing fitness (ln)” value by setting is: (30 °C) -1.36 ± 0.06; (37 °C) -0.695 ± 0.081.

With UCUCAGCAAUAUUACGGACG, the “self-splicing fitness (ln)” value is -1.84 ± 0.14 (30 °C) and -0.508 ± 0.13 (37 °C).

As to CGCAAGCAAUAUUACGCAUA, the “self-splicing fitness (ln)” value was -3.81 ± 0.3 (30 °C) and -0.539 ± 0.15 (37 °C). Consider UGGCAGCAAUAUUACGCCCA, for which the “self-splicing fitness (ln)” value by setting is: (30 °C) -1.66 ± 0.15; (37 °C) 0.585 ± 0.24.

With AUGGAGCAAUAUUACGCUAG, the “self-splicing fitness (ln)” value (37 °C) was -1.66 ± 0.25. Still for that read-out and setting: the result for UACGAGCAAUAUUACGGGCU reads -2.43 ± 0.27. Regarding UCUUAGCAAUAUUACGUAAG, the “self-splicing fitness (ln)” value is, setting by setting: (30 °C) -0.27 ± 0.09; (37 °C) -0.314 ± 0.13.

For the sequence UCCCAGCAAUAUUACGUGCC, the “self-splicing fitness (ln)” value by setting is: (30 °C) -4.06 ± 0.23; (37 °C) -2.32 ± 0.2. The corresponding values for GACUAGCAAUAUUACGGGCU are -2.18 ± 0.15 and -1.64 ± 0.15. The like results for ACAUAGCAAUAUUACGCAAU were, in that order, -3.57 ± 0.21 and -2.67 ± 0.24. The corresponding values for UUUGAGCAAUAUUACGGGCG are -3.15 ± 0.42 and -2.16 ± 0.43. As for UGUUAGCAAUAUUACGGCAA, the “self-splicing fitness (ln)” value by setting is: (30 °C) -0.875 ± 0.15; (37 °C) -0.17 ± 0.14. The like results for UGUCAGCAAUAUUACGGCGC were, in that order, -2.76 ± 0.21 and -1.65 ± 0.19. On to UUUGAGCAAUAUUACGUCUG, for which the “self-splicing fitness (ln)” value (30 °C) was -2.41 ± 0.24 and the “self-splicing fitness (ln)” value (37 °C) is -0.733 ± 0.21. The like results for GAUCAGCAAUAUUACGUCUU were, in that order, 0.24 ± 0.076 and 0.0656 ± 0.085. Turning to CUUCAGCAAUAUUACGAGCA, where the note is “37 °C”, the “self-splicing fitness (ln)” value was -2.16 ± 0.28. Regarding GACAAGCAAUAUUACGGCAA, the “self-splicing fitness (ln)” value runs as follows: (30 °C) -0.787 ± 0.075; (37 °C) -0.384 ± 0.074.

With UCUCAGCAAUAUUACGUUAA, the “self-splicing fitness (ln)” value was -2.79 ± 0.19 (30 °C) and -2.26 ± 0.17 (37 °C).

In the case of CGAGAGCAAUAUUACGCAUU, the “self-splicing fitness (ln)” value is -2.84 ± 0.24 (30 °C) and -2.33 ± 0.21 (37 °C). Consider ACGAAGCAAUAUUACGAGGG, for which the “self-splicing fitness (ln)” value was -3.54 ± 0.17 (30 °C) and -3.26 ± 0.3 (37 °C). The corresponding values for GGAAAGCAAUAUUACGAGAU are -2.44 ± 0.17 and -2.17 ± 0.29. Take CGGAAGCAAUAUUACGAGUA: for the setting “37 °C”, the “self-splicing fitness (ln)” value is -2.86 ± 0.29.

As for GUUAAGCAAUAUUACGGCGA, the “self-splicing fitness (ln)” value runs as follows: (30 °C) -0.403 ± 0.096; (37 °C) -0.122 ± 0.11.

Source of the values: the supplement of paper PMC7877785.
